B1: mAb 158 Fab (COVOX-158) (Fab, V domains shown)
VH: EVQLLESGGDLIQPGGSLRLSCAASGVTVSSNYMSWVRQAPGKGLEWVSIIYPGGSTFYADSVKGRFTISRDNSKNTLYLQMHSLRAEDTAVYYCARDLGSGDMDVWGKGTTVTVSS
VL: DIVMTQSPSFLSASVGDRVTITCRASQGISSYLAWYQQKPGKAPKLLIQAASTLQSGVPSRFSGSGSGTEFTLTISSLQPEDFATYYCQQLNSYRYTFGQGTKVEIK
B2: EY6A mAb (IgG) (antibody, V domains shown)
VH: EVQLVESGGGVVQPGRSLRLSCAASAFTFSSYDMHWVRQAPGKGLEWVAVISYDGSNKYYADSVKGRFTISRDNSKNTLYLQMNSLRAEDTAVYYCAKDGGKLWVYYFDYWGQGTLVTVSS
VL: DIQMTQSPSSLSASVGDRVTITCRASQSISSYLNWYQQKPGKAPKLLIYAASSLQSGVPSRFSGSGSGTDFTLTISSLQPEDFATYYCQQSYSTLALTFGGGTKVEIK
B3: mAb 58 Fab (COVOX-58) (Fab, V domains shown)
VH: QVQLVESGGGLVQPGRSLRLSCAASGFTFDDYAMHWVRQPPGKGLEWVSGVSWNSGTIGYADSVKGRFIISRDNAKNSLYLQMNSLKAEDTALYYCAREVGGTFGVLISREGGLDYWGQGTLVTVSS
VL: SYELTQPPSVSVAPGQTARITCGGNTIGSKSVHWYQQRPGQAPVLVVYDDSDRPSGIPERFSGSNSGNTATLTISRVEAGDEADYYCQVWDSSSDRVVFGGGTKLTVL
B4: Beta-55 mAb (IgG) (antibody, V domains shown)
VH: QVQLQESGPGLVKPSETLSLTCTVSGDSISSSRYYWGWIRQPPGKGLEWIGTFYYSGITYYNPSLKSRVTIFVDTSKNQFSLKLSSVTAADTAVYYCARPRPPDYYDNSGALLFDIWGQGTMVTVSS
VL: AIRMTQSPSTLSASVGDRVTIACRASQSISAWLAWYQQKPGKAPKLLIYKASSLESGVPSRFSGSGSGTEFTLTINSLQPDDFATYYCQQYISSSPWTFGQGTKVEIK

What was measured:
[1] = biological target: T1, His-tagged SARS-CoV-2 RBD (early pandemic, Wuhan) (SARS-CoV-2, UniProt P0DTC2); experiment: crystal structure; conditions: both partners purified
[2] = biological target: T1, His-tagged SARS-CoV-2 RBD (early …); experiment: SPR; conditions: both partners purified

Row | Binder | binding result [1] | Kd [2] [nM]
1 | B1 | binds | 
2 | B2 |  | 7.8
3 | B3 | binds | 
4 | B4 |  | 0.177

Reference: paper PMC8723827 (Cell, 2022)
